Data: doi:10.1101/335232 (bioRxiv, 2018)

Target: the molecule itself
Assay: SEC-MALS

B1: Human apolipoprotein-D (apoD) from breast cyst fluid (natural protein, UniProt P05090 21-189, looked up)
chain: QAFHLGKCPNPPVQENFDVNKYLGRWYEIEKIPTTFENGRCIQANYSLMENGKIKVLNQELRADGTVNQIEGEATPVNLTEPAKLEVKFSWFMPSAPYWILATDYENYALVYSCTCIIQLFHVDFAWILARNPNLPPETVDSLKNILTSNNIDVKKMTVTDQVNCPKLS
modifications: N-linked glycosylation at N45 and N78 (mature numbering)
stoichiometry N: 4
